Measurements as given in US20110243941A1.

Target: wild type CH1-CH3 Fc fusion protein displayed on yeast (pYD-CH1) (human)
Test: FACS titration 1.4 to 0.0006 µM on yeast-displayed Fc, MFI, nonlinear regression

- Kd: 6 nM
Substance: soluble FcγRIIIA tetrameric complex (biotinylated FcγRIIIA-AVITAG on streptavidin-phycoerythrin) (from UniProt P08637 17-203) (receptor)
